Data published in US20240299505A1 (INDUSTRY UNIVERSITY COOPERATION FOUNDATION HANYANG …, published 2024).

B1: recombinant NAMPT protein (rNAMPT) (enzyme)
chain: MNPAAEAEFNILLATDSYKVTHYKQYPPNTSKVYSYFECREKKTENSKLRKVKYEETVFYGLQYILNKYLKGKVVTKEKIQEAKDVYKEHFQDDVFNEKGWNYILEKYDGHLPIEIKAVPEGFVIPRGNVLFTVENTDPECYWLTNWIETILVQSWYPITVATNSREQKKILAKYLLETSGNLDGLEYKLHDFGYRGVSSQETAGIGASAHLVNFKGTDTVAGLALIKKYYGTKDPVPGYSVPAAEHSTITAWGKDHEKDAFEHIVTQFSSVPVSVVSDSYDIYNACEKIWGEDLRHLIVSRSTQAPLIIRPDSGNPLDTVLKVLEILGKKFPVTENSKGYKLLPPYLRVIQGDGVDINTLQEIVEGMKQKMWSIENIAFGSGGGLLQKLTRDLLNCSFKCSYVVTNGLGINVFKDPVADPNKRSKKGRLSLHRTPAGNFVTLEEGKGDLEEYGQDLLHTVFKNGKVTKSYSFDEIRKNAQLNIELEAAHH
notes: Pulled down with anti-His, so it carries a His tag; also called eNAMPT (rNAMPT); unlabeled NAMPT
B3: endogenous NAMPT / extracellular NAMPT (eNAMPT) of mouse macrophages (BMDMs) and mouse colon (enzyme, UniProt Q99KQ4 1-491, looked up)
chain: MNAAAEAEFNILLATDSYKVTHYKQYPPNTSKVYSYFECREKKTENSKVRKVKYEETVFYGLQYILNKYLKGKVVTKEKIQEAKEVYREHFQDDVFNERGWNYILEKYDGHLPIEVKAVPEGSVIPRGNVLFTVENTDPECYWLTNWIETILVQSWYPITVATNSREQKKILAKYLLETSGNLDGLEYKLHDFGYRGVSSQETAGIGASAHLVNFKGTDTVAGIALIKKYYGTKDPVPGYSVPAAEHSTITAWGKDHEKDAFEHIVTQFSSVPVSVVSDSYDIYNACEKIWGEDLRHLIVSRSTEAPLIIRPDSGNPLDTVLKVLDILGKKFPVTENSKGYKLLPPYLRVIQGDGVDINTLQEIVEGMKQKKWSIENVSFGSGGALLQKLTRDLLNCSFKCSYVVTNGLGVNVFKDPVADPNKRSKKGRLSLHRTPAGNFVTLEEGKGDLEEYGHDLLHTVFKNGKVTKSYSFDEVRKNAQLNIEQDVAPH
notes: Endogenous protein of mouse cells or tissue, immunoprecipitated with anti-NAMPT; also called iNAMPT

Legend:
[1] = molecular target: T1, endogenous NLRP3 of mouse macrophages (BMDMs) (mouse, UniProt Q8R4B8 1-1033, limits assumed); assay: co-IP (anti-His) from BMDMs incubated with rNAMPT, anti-NLRP3 blot
[2] = molecular target: B3; assay: co-IP (anti-NAMPT) from LPS/ATP-treated BMDMs, anti-ASC blot
[3] = molecular target: B1; assay: co-IP (anti-His) from BMDMs incubated with rNAMPT, anti-ASC blot
[4] = molecular target: T1, endogenous NLRP3 of mouse macrophages …; assay: co-IP (anti-NAMPT) from LPS/ATP-treated BMDMs, anti-NLRP3 blot
[5] = molecular target: T2, endogenous TLR4 of mouse macrophages (BMDMs) and mouse colon (mouse, UniProt Q9QUK6 26-835); assay: co-IP (anti-His or anti-NAMPT) from mouse colon tissue, anti-TLR4 blot
T2 construct: whole, on cells; Detected by immunoblot after co-immunoprecipitation from lysates
T2 sequence (looked up): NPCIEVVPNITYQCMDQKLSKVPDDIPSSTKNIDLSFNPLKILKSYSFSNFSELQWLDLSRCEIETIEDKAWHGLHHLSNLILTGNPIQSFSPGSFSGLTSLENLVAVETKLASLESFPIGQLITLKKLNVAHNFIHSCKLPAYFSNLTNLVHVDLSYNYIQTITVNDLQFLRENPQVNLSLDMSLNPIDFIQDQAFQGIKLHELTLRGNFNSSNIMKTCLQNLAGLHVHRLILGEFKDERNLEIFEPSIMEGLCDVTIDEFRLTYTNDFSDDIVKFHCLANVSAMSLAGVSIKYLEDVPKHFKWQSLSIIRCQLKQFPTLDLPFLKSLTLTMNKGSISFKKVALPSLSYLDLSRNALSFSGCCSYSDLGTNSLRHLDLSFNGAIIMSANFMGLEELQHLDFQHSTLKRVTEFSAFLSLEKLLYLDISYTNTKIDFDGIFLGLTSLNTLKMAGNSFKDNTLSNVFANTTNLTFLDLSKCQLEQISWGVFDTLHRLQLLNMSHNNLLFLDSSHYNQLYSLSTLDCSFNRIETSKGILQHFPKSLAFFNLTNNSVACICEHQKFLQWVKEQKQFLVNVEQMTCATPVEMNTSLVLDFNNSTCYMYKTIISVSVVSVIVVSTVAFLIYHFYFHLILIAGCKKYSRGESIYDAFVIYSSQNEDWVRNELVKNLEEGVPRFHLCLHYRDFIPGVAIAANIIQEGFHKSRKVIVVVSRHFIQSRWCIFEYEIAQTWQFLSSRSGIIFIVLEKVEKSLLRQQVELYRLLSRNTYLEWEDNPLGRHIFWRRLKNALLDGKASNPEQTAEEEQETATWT

[6] = molecular target: T3, endogenous CYBB of mouse macrophages (BMDMs) and mouse colon (mouse, UniProt Q61093 2-570); assay: co-IP (anti-His or anti-NAMPT) from mouse colon tissue, anti-CYBB blot
T3 construct: whole, on cells; Detected by immunoblot after co-immunoprecipitation from lysates; also called NOX2; gp91Phox
T3 sequence (looked up): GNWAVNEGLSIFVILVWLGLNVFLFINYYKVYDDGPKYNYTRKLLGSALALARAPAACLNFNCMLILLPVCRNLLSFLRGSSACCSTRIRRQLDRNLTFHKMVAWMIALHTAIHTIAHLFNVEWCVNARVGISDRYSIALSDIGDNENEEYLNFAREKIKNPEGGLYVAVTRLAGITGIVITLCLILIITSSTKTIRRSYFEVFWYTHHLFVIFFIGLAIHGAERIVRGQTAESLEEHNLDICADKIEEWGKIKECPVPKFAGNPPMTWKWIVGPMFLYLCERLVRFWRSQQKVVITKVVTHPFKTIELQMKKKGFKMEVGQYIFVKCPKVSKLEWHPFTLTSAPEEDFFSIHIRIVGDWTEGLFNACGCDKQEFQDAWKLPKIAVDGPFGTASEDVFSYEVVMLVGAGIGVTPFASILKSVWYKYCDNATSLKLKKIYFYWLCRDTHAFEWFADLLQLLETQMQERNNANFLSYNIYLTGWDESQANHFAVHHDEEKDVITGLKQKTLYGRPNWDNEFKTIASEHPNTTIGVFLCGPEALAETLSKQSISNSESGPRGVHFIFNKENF

[7] = molecular target: B1; assay: fluorescence binding: titration of fluorescently labeled CYBB with unlabeled rNAMPT, curve fit
Experimental: Specifically, (A) normal human cases along with UC patients were used for IB with αNAMPT and αCYBB. For IB with αActin (upper), whole cell lysates (WCLs) were used. Representative gel images derived from five independent healthy controls and patients were shown. […] Five of ten data from normal human and UC patients were shown. […] (B) The colons of normal mice and mice with acute and chronic colitis were analyzed for IB with αNAMPT and αCYBB. WCLs were used for IB together with αActin. Biological replicates (n=10) for each condition were performed. (C) BMDMs were activated with LPS (100 ng/mL) for the indicated times (left), primed with LPS (100 ng/ml) for 4 hours, and then stimulated with ATP (1 mM) for the indicated times (right). IB in the supernatant (SN) with αNAMPT and WCL with αNAMPT or αActin. […] BMDMs were treated for IP with αNAMPT or αHis, and then treated sequentially IB with αTLR4, αCYBB, or αCYBA (D), and IB with αASC or αNLRP3(E). WCLs were used for IB with αTLR4, αCYBB, αCYBA, αASC, αNLRP3 or αActin.

T1 sequence (Q8R4B8 whole entry): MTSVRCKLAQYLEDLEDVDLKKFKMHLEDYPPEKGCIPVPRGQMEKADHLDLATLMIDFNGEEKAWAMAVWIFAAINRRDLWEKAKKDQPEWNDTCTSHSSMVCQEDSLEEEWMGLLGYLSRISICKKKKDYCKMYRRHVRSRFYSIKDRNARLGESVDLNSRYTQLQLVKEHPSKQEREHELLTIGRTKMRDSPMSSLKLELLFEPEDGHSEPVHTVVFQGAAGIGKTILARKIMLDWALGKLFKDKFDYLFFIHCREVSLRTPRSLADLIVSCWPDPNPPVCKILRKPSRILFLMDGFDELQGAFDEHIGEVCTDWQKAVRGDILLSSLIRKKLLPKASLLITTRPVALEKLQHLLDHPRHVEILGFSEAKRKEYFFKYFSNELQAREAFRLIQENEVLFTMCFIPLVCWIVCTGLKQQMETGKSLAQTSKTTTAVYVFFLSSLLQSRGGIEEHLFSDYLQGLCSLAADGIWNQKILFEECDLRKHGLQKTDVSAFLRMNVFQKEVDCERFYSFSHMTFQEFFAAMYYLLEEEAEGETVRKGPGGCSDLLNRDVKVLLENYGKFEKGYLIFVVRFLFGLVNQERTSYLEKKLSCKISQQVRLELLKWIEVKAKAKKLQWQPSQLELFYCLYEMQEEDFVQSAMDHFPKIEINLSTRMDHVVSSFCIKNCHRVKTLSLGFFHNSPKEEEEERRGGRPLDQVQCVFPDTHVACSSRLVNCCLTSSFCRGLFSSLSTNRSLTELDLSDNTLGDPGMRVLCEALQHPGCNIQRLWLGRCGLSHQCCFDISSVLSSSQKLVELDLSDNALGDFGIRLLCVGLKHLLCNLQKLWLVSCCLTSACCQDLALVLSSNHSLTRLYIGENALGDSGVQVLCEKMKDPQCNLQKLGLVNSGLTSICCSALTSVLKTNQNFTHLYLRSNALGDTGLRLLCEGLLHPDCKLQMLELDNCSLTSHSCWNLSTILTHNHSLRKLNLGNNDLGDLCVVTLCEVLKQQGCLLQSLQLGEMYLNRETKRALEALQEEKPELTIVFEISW

B1
binding result [1]: no binding (tested: 1 ug/mL rNAMPT)

B2: endogenous ASC of mouse macrophages (BMDMs) (other, UniProt Q9EPB4 1-193, looked up)
chain: MGRARDAILDALENLSGDELKKFKMKLLTVQLREGYGRIPRGALLQMDAIDLTDKLVSYYLESYGLELTMTVLRDMGLQELAEQLQTTKEESGAVAAAASVPAQSTARTGHFVDQHRQALIARVTEVDGVLDALHGSVLTEGQYQAVRAETTSQDKMRKLFSFVPSWNLTCKDSLLQALKEIHPYLVMDLEQS
binding result [2]: no binding | binding result [3]: no binding (tested: 1 ug/mL rNAMPT)

B3
binding result [4]: no binding | binding result [5]: binds | binding result [6]: binds

B4: fluorescently labeled CYBB (enzyme)
chain: MGNWAVNEGLSIFVILVWLGLNVFLFVWYYRVYDIPPKFFYTRKLLGSALALARAPAACLNFNCMLILLPVCRNLLSFLRGSSACCSTRVRRQLDRNLTFHKMVAWMIALHSAIHTIAHLFNVEWCVNARVNNSDPYSVALSELGDRQNESYLNFARKRIKNPEGGLYLAVTLLAGITGVVITLCLILIITSSTKTIRRSYFEVFWYTHHLFVIFFIGLAIHGAERIVRGQTAESLAVHNITVCEQKISEWGKIKECPIPQFAGNPPMTWKWIVGPMFLYLCERLVRFWRSQQKVVITKVVTHPFKTIELQMKKKGFKMEVGQYIFVKCPKVSKLEWHPFTLTSAPEEDFFSIHIRIVGDWTEGLFNACGCDKQEFQDAWKLPKIAVDGPFGTASEDVFSYEVVMLVGAGIGVTPFASILKSVWYKYCNNATNLKLKKIYFYWLCRDTHAFEWFADLLQLLESQMQERNNAGFLSYNIYLTGWDESQANHFAVHHDEEKDVITGLKQKTLYGRPNWDNEFKTIASQHPNTRIGVFLCGPEALAETLSKQSISNSESGPRGVHFIFNKENF
Kd [7]: 896 nM
